Laboratory results reported in US20260070976A1 (Alector, published 2026).

Experiments:
[1] = target: recombinant human PILRB (human, UniProt Q9UKJ0 20-191); assay: SPR, Carterra LSA, steady-state fit
Protocol: (§1) Binding kinetics of human anti-PILRA-IgG4 antibodies were evaluated by surface plasmon resonance (SPR) using a Carterra LSA instrument (Carterra, Salt Lake City, UT). Antibodies were immobilized in duplicate arrays onto an HC30M sensor chip (Carterra) by amine coupling according to the manufacturer's protocol. After priming the immobilized antibodies with HBS-EP+ (Teknova, Hollister, CA, #8022) running buffer with 0.5 mg/mL BSA (MP Biomedicals LLC, #820451), the immobilized antibodies were tested for their ability to bind to recombinant human PILRA (SEQ ID NO:1) and cynomolgus PILRA (SEQ ID NO:120) and to human PILRB (SEQ ID NO:105) and cynomolgus PILRB (SEQ ID NO:121).
(§2) For binding kinetics analysis, human and cynomolgus PILRA and PILRB analytes were diluted in running buffer to 440 to 470 nM, and diluted 3-fold serially five times, to 1.8 to 1.9 nM, and injected for five minutes over the entire chip using the single channel flow cell to measure association of binding to the immobilized antibodies. Dissociation of the analytes was measured for five minutes, followed by regeneration of the chip with two 30-second injections of 10 mM glycine pH 2.0.
For the human PILRB interactions, the binding was too weak and heterogenous for kinetic constants to be calculated in this assay. Therefore, steady-state affinities were estimated based on the binding level of each analyte concentration at the end of the injections.

[2] = target: recombinant human PILRA (human, UniProt Q9UKJ1 20-197); assay: SPR, Carterra LSA, antibody amine-coupled, kinetic fit
Chain of recombinant human PILRA (Q9UKJ1 20-197 limits assumed): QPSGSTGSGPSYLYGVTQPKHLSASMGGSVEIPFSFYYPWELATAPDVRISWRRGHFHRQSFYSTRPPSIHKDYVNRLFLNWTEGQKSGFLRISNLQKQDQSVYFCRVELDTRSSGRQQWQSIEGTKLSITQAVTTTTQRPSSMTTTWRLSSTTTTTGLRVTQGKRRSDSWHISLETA
Protocol: as §1, §2

[3] = target: T1, recombinant cynomolgus PILRA (SEQ ID NO:120) (cynomolgus monkey); assay: as above
T1 construct: also called cyno PILRA
T1 sequence (chain, as listed by the source limits assumed): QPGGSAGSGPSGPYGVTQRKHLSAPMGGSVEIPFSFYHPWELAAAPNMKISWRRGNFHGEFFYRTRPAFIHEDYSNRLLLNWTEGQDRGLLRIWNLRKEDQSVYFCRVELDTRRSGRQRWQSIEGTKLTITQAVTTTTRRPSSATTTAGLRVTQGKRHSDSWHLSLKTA
Protocol: as §1, §2

Chain of recombinant human PILRB (Q9UKJ0 20-191 limits assumed): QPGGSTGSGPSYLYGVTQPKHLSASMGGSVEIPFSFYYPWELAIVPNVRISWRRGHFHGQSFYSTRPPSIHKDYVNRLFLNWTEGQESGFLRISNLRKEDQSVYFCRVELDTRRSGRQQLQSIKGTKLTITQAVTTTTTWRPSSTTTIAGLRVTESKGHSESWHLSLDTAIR

Binder | Kd [1] [nM] | Kd [2] [nM] | Kd [3] [nM]
X4 (antibody, human IgG4, V domains shown) VH: QVQLVQSGAEVKKPGSSVKVSCKASGYNFLNYDVNWVRQAPGQGLEWMGGIIPIFGTANYAQKFQGRVTITADESTSTAYMELSSLRSEDTAVYYCATGVGAGWFDPWGQGTLVTVSS VL: DIVMTQSPDSLAVSLGERATINCKSSQSVYFSPNNKNYLAWYQQKPGQPPKLLIYWASTRESGVPDRFSGSGSGTDFTLTISSLQAEDVAVYYCQQYFEEPYTFGQGTRLEIK | 138 | 12 | 0.2
X24 (antibody, human IgG4, V domains shown) VH: QVQLVQSGAEVKKPGSSVKVSCKASGYNFLHYDVNWVRQAPGQGLEWMGGIIPIFGTANYAQKFQGRVTITADESTSTAYMELSSLRSEDTAVYYCATGVGAGWFDPWGQGTLVTVSS VL: not shown | 16 | 1.7 | 0.2
X6 (antibody, human IgG4, V domains shown) VH: QVQLVQSGAEVKKPGSSVKVSCKASGYNFLNYDVNWVRQAPGQGLEWMGGIIPIFGTANYAQKFQGRVTITADESTSTAYMELSSLRSEDTAVYYCATGVGAGWFDPWGQGTLVTVSS VL: DIVMTQSPDSLAVSLGERATINCKSSQSVYFDVNNKNYLAWYQQKPGQPPKLLIYWASTRESGVPDRFSGSGSGTDFTLTISSLQAEDVAVYYCQQYFEEPYTFGQGTRLEIK | 35 | 3.1 | 0.1
X5 (antibody, human IgG4, V domains shown) VH: QVQLVQSGAEVKKPGSSVKVSCKASGYNFLNYDVNWVRQAPGQGLEWMGGIIPIFGTANYAQKFQGRVTITADESTSTAYMELSSLRSEDTAVYYCATGVGAGWFDPWGQGTLVTVSS VL: DIVMTQSPDSLAVSLGERATINCKSSQSVFFDVNNKNYLAWYQQKPGQPPKLLIYWASTRESGVPDRFSGSGSGTDFTLTISSLQAEDVAVYYCQQYFEEPYTFGQGTRLEIK | 35 | 2.4 | 0.1
X15 (antibody, human IgG4, V domains shown) VH: QVQLVQSGAEVKKPGSSVKVSCKASGYNFLHYDVNWVRQAPGQGLEWMGGIIPIFGTANYAQKFQGRVTITADESTSTAYMELSSLRSEDTAVYYCATAVGAGWFDTWGQGTLVTVSS VL: DIVMTQSPDSLAVSLGERATINCKSSQSVFFDVNNKNYLAWYQQKPGQPPKLLIYWASTRESGVPDRFSGSGSGTDFTLTISSLQAEDVAVYYCQQYFEEPYTFGQGTRLEIK | 2 | 0.1 | 0.1
X10 (antibody, human IgG4, V domains shown) VH: QVQLVQSGAEVKKPGSSVKVSCKASGYNFLNYDVNWVRQAPGQGLEWMGGIIPIFGTANYAQKFQGRVTITADESTSTAYMELSSLRSEDTAVYYCATGVGAGWFDPWGQGTLVTVSS VL: DIVMTQSPDSLAVSLGERATINCKSSQSVFFDENNKNYLAWYQQKPGQPPKLLIYWASTRESGVPDRFSGSGSGTDFTLTISSLQAEDVAVYYCQQYYEEPYTFGQGTRLEIK | 68 | 3.2 | 0.3
X17 (antibody, human IgG4, V domains shown) VH: QVQLVQSGAEVKKPGSSVKVSCKASGYNFLHYDVNWVRQAPGQGLEWMGGIIPIFGTANYAQKFQGRVTITADESTSTAYMELSSLRSEDTAVYYCATAVGAGWFDTWGQGTLVTVSS VL: DIVMTQSPDSLAVSLGERATINCKSSQSVFFDENNKNYLAWYQQKPGQPPKLLIYWASTRESGVPDRFSGSGSGTDFTLTISSLQAEDVAVYYCQQYFEEPYTFGQGTRLEIK | 2 | 0.4 | 0.1
X9 (antibody, human IgG4, V domains shown) VH: QVQLVQSGAEVKKPGSSVKVSCKASGYNFLNYDVNWVRQAPGQGLEWMGGIIPIFGTANYAQKFQGRVTITADESTSTAYMELSSLRSEDTAVYYCATGVGAGWFDPWGQGTLVTVSS VL: DIVMTQSPDSLAVSLGERATINCKSSQSVFFDVNNKNYLAWYQQKPGQPPKLLIYWASTRESGVPDRFSGSGSGTDFTLTISSLQAEDVAVYYCQQYYEEPYTFGQGTRLEIK | 39 | 2.8 | 0.1
X19 (antibody, human IgG4, V domains shown) VH: QVQLVQSGAEVKKPGSSVKVSCKASGYNFLHYDVNWVRQAPGQGLEWMGGIIPIFGTANYAQKFQGRVTITADESTSTAYMELSSLRSEDTAVYYCATAVGAGWFDPWGQGTLVTVSS VL: DIVMTQSPDSLAVSLGERATINCKSSQSVFFDENNKNYLAWYQQKPGQPPKLLIYWASTRESGVPDRFSGSGSGTDFTLTISSLQAEDVAVYYCQQYYEEPYTFGQGTRLEIK | 2 | 0.3 | 0.1
X23 (antibody, human IgG4, V domains shown) VH: QVQLVQSGAEVKKPGSSVKVSCKASGYNFLHYDVNWVRQAPGQGLEWMGGIIPIFGTANYAQKFQGRVTITADESTSTAYMELSSLRSEDTAVYYCATGVGAGWFDPWGQGTLVTVSS VL: not shown | 35 | 3.9 | 0.3

Second part, the binder after the results:

Kd [1] [nM] | Kd [2] [nM] | Kd [3] [nM] | Binder
211 | 7 | 0.3 | X25 (antibody, human IgG4, V domains shown) VH: QVQLVQSGAEVKKPGSSVKVSCKASGYNFLNYDVNWVRQAPGQGLEWMGGIIPIFGTANYAQKFQGRVTITADESTSTAYMELSSLRSEDTAVYYCATAVGAGWFDPWGQGTLVTVSS VL: not shown
33 | 3.8 | 0.3 | X28 (antibody, human IgG4, V domains shown) VH: QVQLVQSGAEVKKPGSSVKVSCKASGYNFLNYDVNWVRQAPGQGLEWMGGIIPIFGTANYAQKFQGRVTITADESTSTAYMELSSLRSEDTAVYYCATAVGAGWFDPWGQGTLVTVSS VL: not shown
199 | 8.1 | 0.3 | X26 (antibody, human IgG4, V domains shown) VH: QVQLVQSGAEVKKPGSSVKVSCKASGYNFLNYDVNWVRQAPGQGLEWMGGIIPIFGTANYAQKFQGRVTITADESTSTAYMELSSLRSEDTAVYYCATAVGAGWFDPWGQGTLVTVSS VL: not shown
43 | 3.3 | 0.1 | X30 (antibody, human IgG4, V domains shown) VH: QVQLVQSGAEVKKPGSSVKVSCKASGYNFLNYDVNWVRQAPGQGLEWMGGIIPIFGTANYAQKFQGRVTITADESTSTAYMELSSLRSEDTAVYYCATGVGAGWFDPWGQGTLVTVSS VL: DIVMTQSPDSLAVSLGERATINCKSSQSVYFDVNNKNYLAWYQQKPGQPPKLLIYWASTRESGVPDRFSGSGSGTDFTLTISSLQAEDVAVYYCQQYYEEPYTFGQGTRLEIK
87 | 13 | 0.5 | X27 (antibody, human IgG4, V domains shown) VH: QVQLVQSGAEVKKPGSSVKVSCKASGYNFLNYDVNWVRQAPGQGLEWMGGIIPIFGTANYAQKFQGRVTITADESTSTAYMELSSLRSEDTAVYYCATAVGAGWFDPWGQGTLVTVSS VL: not shown
38 | 2.2 | 0.1 | X31 (antibody, human IgG4, V domains shown) VH: QVQLVQSGAEVKKPGSSVKVSCKASGYNFLNYDVNWVRQAPGQGLEWMGGIIPIFGTANYAQKFQGRVTITADESTSTAYMELSSLRSEDTAVYYCATGVGAGWFDPWGQGTLVTVSS VL: not shown
